{"source": "patent US20250034272A1", "about": "“COMPOSITIONS AND METHODS FOR TREATING SEVERE ASTHMA” (Equillium, Inc., priority 2018, published 2025)", "origin": "cited, not measured here", "system": "Th1/Th17 type T cells", "conditions": "stated as known ability", "data": [{"molecule": "EQ001: humanized anti-CD6 monoclonal antibody, VH/VK SEQ ID NOS: 1 and 2; itolizumab produced in CHO cells (antibody, V domains shown, humanized T1h VH sequence; humanized T1h VL sequence, itolizumab produced in CHO cells) VH: EVQLVESGGGLVKPGGSLKLSCAASGFKFSRYAMSWVRQAPGKRLEWVATISSGGSYIYYPDSVKGRFTISRDNVKNTLYLQMSSLRSEDTAMYYCARRDYDLDYFDSWGQGTLVTVSS VL: DIQMTQSPSSLSASVGDRVTITCKASRDIRSYLTWYQQKPGKAPKTLIYYATSLADGVPSRFSGSGSGQDYSLTISSLESDDTATYYCLQHGESPFTLGSGTKLEIK", "values": [{"measurement": "inhibition of activation and migration of Th1/Th17 type T cells", "value": "inhibit activation and migration"}]}]}
